# B1: Gas6-LamininG active peptide: sequence of EGF-LamininG functional domain of Gas6 protein, amino acid sequence SEQ ID NO.1 (protein)
# chain: DQCTPNPCDRKGTQACQDLMGNFFCLCKAGWGGRLCDKDVNECSQENGGCLQICHNKPGSFHCSCHSGFELSSDGRTCQDIDECADSEACGEARCKNLPGSYSCLCDEGFAYSSQEKACRDVDECLQGRCEQVCVNSPGSYTCHCDGRGGLKLSQDMDTCEDILPCVPFSVAKSVKSLYLGRMFSGTPVIRLRFKRLQPTRLVAEFDFRTFDPEGILLFAGGHQDSTWIVLALRAGRLELQLRYNGVGRVTSSGPVINHGMWQTISVEELARNLVIKVNRDAVMKIAVAGDLFQPERGLYHLNLTVGGIPFHEKDLVQPINPRLDGCMRSWNWLNGEDTTIQETVKVNTRMQCFSVTERGSFYPGSGFAFYSLDYMRTPLDVGTESTWEVEVVAHIRPAADTGVLFALWAPDLRAVPLSVALVDYHSTKKLKKQLVVLAVEHTALALMEIKVCDGQEHVVTVSLRDGEATLEVDGTRGQSEVSAAQLQERLAVLERHLRSPVLTFAGGLPDVPVTSAPVTAFYRGCMTLEVNRRLLDLDEAAYKHSDITAHSCPPVEPAAA
# modifications: the amino acid sequence of the active peptide
# B2: Gas6 full-length proteins: Gas6 full-length proteins used as comparator (protein, UniProt Q14393 1-678, looked up)
# chain: MAPSLSPGPAALRRAPQLLLLLLAAECALAALLPAREATQFLRPRQRRAFQVFEEAKQGHLERECVEELCSREEAREVFENDPETDYFYPRYLDCINKYGSPYTKNSGFATCVQNLPDQCTPNPCDRKGTQACQDLMGNFFCLCKAGWGGRLCDKDVNECSQENGGCLQICHNKPGSFHCSCHSGFELSSDGRTCQDIDECADSEACGEARCKNLPGSYSCLCDEGFAYSSQEKACRDVDECLQGRCEQVCVNSPGSYTCHCDGRGGLKLSQDMDTCEDILPCVPFSVAKSVKSLYLGRMFSGTPVIRLRFKRLQPTRLVAEFDFRTFDPEGILLFAGGHQDSTWIVLALRAGRLELQLRYNGVGRVTSSGPVINHGMWQTISVEELARNLVIKVNRDAVMKIAVAGDLFQPERGLYHLNLTVGGIPFHEKDLVQPINPRLDGCMRSWNWLNGEDTTIQETVKVNTRMQCFSVTERGSFYPGSGFAFYSLDYMRTPLDVGTESTWEVEVVAHIRPAADTGVLFALWAPDLRAVPLSVALVDYHSTKKLKKQLVVLAVEHTALALMEIKVCDGQEHVVTVSLRDGEATLEVDGTRGQSEVSAAQLQERLAVLERHLRSPVLTFAGGLPDVPVTSAPVTAFYRGCMTLEVNRRLLDLDEAAYKHSDITAHSCPPVEPAAA
# modifications: full-length
# notes: Gas6 full-length proteins used as comparator
# How the values were obtained:
# RPE cells = assay: Model of in vitro RPE phagocytosis (disc membrane uptake, laser confocal); format: cell-based; conditions: after 3 h of RPE phagocytosis, p<0.05 between groups
# [1] = test system: AKT phosphorylation level downstream of MerTK; assay: AKT phosphorylation level in RPE cells cultivated in vitro (Western blotting, pAKT/GAPDH); format: cell-based; conditions: 200 ng/ml and 800 ng/ml, 30 minutes, vs blank control
# Method: Segmented cloning was conducted according to the functional domain of Gas6 protein, wherein the sequence of EGF-LamininG functional domain is the primary active peptide sequence (G3, named as Gas6-LamininG active peptide).
Molecule,contents of disc membranes taken up (RPE phagocytosis capacity) (RPE cells),Akt phosphorylation level (relative gray value of pAKT/GAPDH) [1]
B1,an effect of enhancing the phagocytic functions of retinal pigment epithelium,significantly upregulating Akt phosphorylation levels
B2,,significantly upregulating Akt phosphorylation levels

# — patent US20200390853A1, “ACTIVE PEPTIDE FOR ENHANCING THE PHAGOCYTIC FUNCTIONS OF RETINAL PIGMENT EPITHELIUM AND A USE THEREOF” (Beijing Tongren Hospital, Capital Medical University, priority 2019, published 2020)
